Experimental data published in paper PMC4426065 (Structure (London, England : 1993), 2015).

B1: Atg1 EAT domain (K. lactis Atg1 residues 562-831) (domain or fragment, Kluyveromyces lactis, UniProt Q6CSX2 562-831, looked up)
chain: DSNITPAVESLAAKAFVMYSFAEMKFSQILPTPPSSTDYDPLSDKRLSNGSCAIEDEEDLDQGRPPSNQTLTSATTKISSATNVDTQIPAPELKKLCTESLLLYLKALTILAASMKLTSKWWYENESKNCTLKLNILVQWIRDRFNECLDKAEFLRLKLHAINTSPNSQWSDDDPVIFVEKLIYDRALDISRNAARMEMESGNYNTCELAYATSLWMLEILLDENFQFNEVYDDEYASNITSLDESDKEMIKKYISSIANRLKALKSKMV
B2: Atg17 (K. lactis) (natural protein, Kluyveromyces lactis, UniProt Q6CS99 1-423, looked up)
chain: MSDAATTIPSDEIDKLWNKARNQLVEAQVECEESLKILSKVRTEMDSSQKSRFKLKFILNCLVNQVEFFKNIMLEKCISTELIDNEWSKLVLVEIVNDVSYWQNEITTKMKILQGTKYDLTDDHSSLSDFICMDHVDILQQKIDEIPIIKQQVTNIRQHYKSIKDRIENQLVAVKLKKLRTYFDSHFSRDSKNNLFKLLESDYVTELNEFENELADFLRSITDHFDKCTILKEQQIPLPDLKELFQIVKKDDTQLENIRELVFETGLEVKAFSKKVNETISEIMDKIGGFHLLASKIVTELEKCEEYLSIFQKIANLVFVYKESCIKKIEQVQQLCEFYDKFKLGYKNLLRERDRRKATALQMEKILKECQEKLQALSDADLDQRQQFLLENGDYLPENIWPGYIDDMESMYSFEYSIHNVPN
B3: Atg13 residues 350-525 (K. lactis) (domain or fragment, Kluyveromyces lactis, UniProt Q6CWK2 350-525, looked up)
chain: AALKVQRGSAGSTIVNGDVPPELSSVGSGSKYSSSFGRIRRHSSIRRSESFDRTAKPRKSTENPPEDLLEFVKLLEDKKELNMKPNTILPQQDISNSLMRFQSMKSNNDALSDNLSMSMSIDQPNVRFGSNSHSPIPSFSPNYGSIPSRLSQGSRNNSNAELITSRKSSLDRHKHN

Columns and labels:
Test in all cases: SAXS
[1] = target: Atg1 minipentamer: Atg1EAT-Atg13_(350-525)-Atg17-Atg31-Atg29_(1-85) (K. lactis) (Kluyveromyces lactis) (UniProt Q6CSX2)
[2] = target: Atg17-Atg31-Atg29_(1-85) subcomplex from Kluyveromyces lactis (dimeric double crescent) (Kluyveromyces lactis) (UniProt Q6CS99)
SAXS [3] = target: the molecule itself
SAXS [4] = target: the molecule itself; remark: listed apart in the source
Atg17 (K. lactis) = target: B2

Atg1 minipentamer: Atg1EAT-Atg13_(350-525)-Atg17-Atg31-Atg29_(1-85) (K. lactis) (from UniProt Q6CSX2 562-831; Q6CWK2 350-525; Q6CS99 1-423; Q6CTU8 1-85) (complex)
stoichiometry N [1]: 4

Atg17-Atg31-Atg29_(1-85) subcomplex from Kluyveromyces lactis (dimeric double crescent) (from UniProt Q6CS99 1-423; Q6CTU8 1-85)
stoichiometry N [2]: 4

B1
stoichiometry N (SAXS [3]): 2

B2
binding result (SAXS [4]): binds

B3
binding result (Atg17 (K. lactis)): binds
